# From IntAct's records for PubMed 24656813
# B1: Telomere length regulation protein TEL2 homolog (Homo sapiens), Q9Y4R8 (parent)
# chain: MEPAPSEVRLAVREAIHALSSSEDGGHIFCTLESLKRYLGEMEPPALPREKEEFASAHFSPVLRCLASRLSPAWLELLPHGRLEELWASFFLEGPADQAFLVLMETIEGAAGPSFRLMKMARLLARFLREGRLAVLMEAQCRQQTQPGFILLRETLLGKVVALPDHLGNRLQQENLAEFFPQNYFRLLGEEVVRVLQAVVDSLQGGLDSSVSFVSQVLGKACVHGRQQEILGVLVPRLAALTQGSYLHQRVCWRLVEQVPDRAMEAVLTGLVEAALGPEVLSRLLGNLVVKNKKAQFVMTQKLLFLQSRLTTPMLQSLLGHLAMDSQRRPLLLQVLKELLETWGSSSAIRHTPLPQQRHVSKAVLICLAQLGEPELRDSRDELLASMMAGVKCRLDSSLPPVRRLGMIVAEVVSARIHPEGPPLKFQYEEDELSLELLALASPQPAGDGASEAGTSLVPATAEPPAETPAEIVDGGVPQAQLAGSDSDLDSDDEFVPYDMSGDRELKSSKAPAYVRDCVEALTTSEDIERWEAALRALEGLVYRSPTATREVSVELAKVLLHLEEKTCVVGFAGLRQRALVAVTVTDPAPVADYLTSQFYALNYSLRQRMDILDVLTLAAQELSRPGCLGRTPQPGSPSPNTPCLPEAAVSQPGSAVASDWRVVVEERIRSKTQRLSKGGPRQGPAGSPSRFNSVAGHFFFPLLQRFDRPLVTFDLLGEDQLVLGRLAHTLGALMCLAVNTTVAVAMGKALLEFVWALRFHIDAYVRQGLLSAVSSVLLSLPAARLLEDLMDELLEARSWLADVAEKDPDEDCRTLALRALLLLQRLKNRLLPPASP
# Variants of: B1
# Conditions: with pihd1_human PIH1D1, Q9NWS0
# Sequence of pihd1_human PIH1D1, Q9NWS0 (Q9NWS0 whole entry): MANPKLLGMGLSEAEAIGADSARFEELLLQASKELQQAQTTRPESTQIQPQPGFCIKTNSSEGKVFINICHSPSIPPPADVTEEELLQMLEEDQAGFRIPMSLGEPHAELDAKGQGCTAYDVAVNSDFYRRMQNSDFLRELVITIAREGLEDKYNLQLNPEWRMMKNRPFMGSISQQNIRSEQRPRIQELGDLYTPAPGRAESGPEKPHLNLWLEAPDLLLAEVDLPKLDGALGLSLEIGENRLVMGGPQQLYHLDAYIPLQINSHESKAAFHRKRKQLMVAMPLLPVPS
row,Variant,effect of a mutation on the interaction
1,D492A;D493A,disrupting interaction strength

# Variants of: B1
# Conditions: with pihd1_human PIH1D1, Q9NWS0
# Remark: another data set of the same source
row,Variant,effect of a mutation on the interaction
1,D492A,disrupting interaction strength
2,D490A,disrupting interaction strength
3,D493A,disrupting interaction strength
